Measurements as given in the supplement of paper PMC12764529.
± gives the half width of the 95% confidence interval.

Assays:
[1] = folding stability dG unfold from trypsin proteolysis; higher = more stable
Summary of the method: (§1)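 Unfolding free energy was derived, per protease or combined, by relating Bayesian-fitted K50 values from sequencing counts to a sequence-predicted unfolded-state K50 and a shared folded-state K50. The underlying digests exposed cysteine-free mini-proteins under 80 residues, in a PA-tagged cDNA display construct, to trypsin and chymotrypsin at 11 threefold-diluted concentrations and to a no-protease condition. A filter kept only designs with AlphaFold2 dimer inter-PAE above 15.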

[2] = folding stability dG unfold from chymotrypsin proteolysis; higher = more stable
Summary of the method: as §1

[3] = folding stability dG unfold (combined trypsin and chymotrypsin); higher = more stable
Summary of the method: as §1

SAGGSAGGSAGGGLASEPVEIVEILSVTLVPEANVEVVTVKLPNPGELVTVPASAVPPGLSAGGSAGGSAGG [r7_304_JUSTAS]
folding stability dG unfold [1]: 2.07 ± 0.13 kcal/mol | folding stability dG unfold [2]: 1.16 ± 0.048 kcal/mol | folding stability dG unfold [3]: 1.69 ± 0.085 kcal/mol

SAGGSATAEELAEEIAREIAEAFPAEVVRVEVEEVDEDRVVFRMEVRVPLPDGSTVRAPFTVVVPASAGGSA [r15_276_TrMRF]
folding stability dG unfold [1]: 0.572 ± 0.042 kcal/mol | folding stability dG unfold [2]: 0.778 ± 0.14 kcal/mol | folding stability dG unfold [3]: 0.693 ± 0.1 kcal/mol

SAGGSAGGSKKKYIIKVKIYNENGELVEEKEIEAESEEEALEALAKNPNISKEEITKIEVYELSAGGSAGGS [r12_182_TrROS_Hall]
folding stability dG unfold [1]: 2.24 ± 0.041 kcal/mol | folding stability dG unfold [2]: 2.1 ± 0.054 kcal/mol | folding stability dG unfold [3]: 2.19 ± 0.08 kcal/mol

SAGGSAGGSAGGKPTITITVELEDGYKATFEYNEETDKITVKIFNKNGELVEEFEFEIKSAGGSAGGSAGGS [r10_1044_TrROS_Hall]
folding stability dG unfold [1]: 1.81 ± 0.12 kcal/mol | folding stability dG unfold [2]: 3.24 ± 0.21 kcal/mol | folding stability dG unfold [3]: 2.87 ± 0.21 kcal/mol

SAGGSAGGSPIDITDIEVEQHEHPDGQQYHEVKIRLPDGRPIKIWMSPGSTPDQVLKQAKEFISAGGSAGGS [r12_1047_TrROS]
folding stability dG unfold [1]: -0.137 ± 0.12 kcal/mol | folding stability dG unfold [2]: -0.0705 ± 0.26 kcal/mol | folding stability dG unfold [3]: 0.0598 ± 0.17 kcal/mol

SAGGSAGGSAGWIDPEDIKKIQHERNPNNGRGEMRLEFENGKPVEIEFKSPEEALDWLLKSAGGSAGGSAGG [r11_339_TrROS]
folding stability dG unfold [1]: -0.547 ± 0.15 kcal/mol | folding stability dG unfold [2]: -0.156 ± 0.23 kcal/mol | folding stability dG unfold [3]: -0.185 ± 0.13 kcal/mol

SAGPIKEKTITFPNGMRAKITDIQVGPPPDGEPLIKLKVKVEMWQPKRDPDGKQDGWQPMKMEMTLIIPSAG [r5_476_TrROS]
folding stability dG unfold [1]: 2.68 ± 0.18 kcal/mol | folding stability dG unfold [2]: 3.91 ± 0.058 kcal/mol | folding stability dG unfold [3]: 3.51 ± 0.36 kcal/mol

SGSSMGPPDVKERLIDIPSSELSPEVLEEIIEEAIKEGYSVVTINIPEGKYITIELKDGKVTKITEKSLESA [r9_905_JUSTAS]
folding stability dG unfold [1]: 1.84 ± 0.035 kcal/mol | folding stability dG unfold [2]: 1.75 ± 0.047 kcal/mol | folding stability dG unfold [3]: 1.76 ± 0.088 kcal/mol

SAGGSAGGSAGGDNLMIMIEIEPVKTETRMDPDGKMETRTEYRIKIEIIPPPNPDDPENNSAGGSAGGSAGG [r7_523_TrROS]
folding stability dG unfold [1]: 1.55 ± 0.11 kcal/mol | folding stability dG unfold [2]: 2.63 ± 0.049 kcal/mol | folding stability dG unfold [3]: 2.28 ± 0.17 kcal/mol

SMTKTIPVTIEVDPSLSEEEIEALVEKVKEEIKEKAEAEGGKVKVTVTIEPDPNKPVVHGTITITKPKKLSA [r9_1161_JUSTAS]
folding stability dG unfold [1]: 0.699 ± 0.049 kcal/mol | folding stability dG unfold [2]: -0.499 ± 0.18 kcal/mol | folding stability dG unfold [3]: 0.165 ± 0.13 kcal/mol

SAGQIVTTDPATGVTTVTIPFPDGSYATITITVEKLTPDKESIVSVDVDFKDKGKKVVPAAVLVEEILSSAG [r5_842_JUSTAS]
folding stability dG unfold [1]: 0.25 ± 0.084 kcal/mol | folding stability dG unfold [2]: 1.07 ± 0.11 kcal/mol | folding stability dG unfold [3]: 0.851 ± 0.17 kcal/mol

SAGGGSSMPVPVRVAEFNVPDSRPEELIERAKELLEADEIDVLVVPSPAAQEALKAAFPDFPVPVLVRSAGG [r13_353_JUSTAS]
folding stability dG unfold [1]: -0.646 ± 0.085 kcal/mol | folding stability dG unfold [2]: -0.339 ± 0.17 kcal/mol | folding stability dG unfold [3]: -0.459 ± 0.11 kcal/mol

SNIEIEPYQPGEPREYEIPPGKLKITFYQDPGPMYIRVKDPGNGEPVEIPIPMERGDWDNAAKKILKAIKSA [r9_982_TrROS]
folding stability dG unfold [1]: 0.81 ± 0.14 kcal/mol | folding stability dG unfold [2]: 0.454 ± 0.27 kcal/mol | folding stability dG unfold [3]: 0.802 ± 0.32 kcal/mol

SAPKVISATVTYNPATGKVTVTVTLEDADGPVTVTYTFDGDGNVPVTVYDTRTTKPLGTITVPADQLNLSAG [r14_608_TrMRF]
folding stability dG unfold [1]: 1.06 ± 0.08 kcal/mol | folding stability dG unfold [2]: 1.21 ± 0.23 kcal/mol | folding stability dG unfold [3]: 1.14 ± 0.18 kcal/mol

SAGGMTLEFELEAEPLEEVEKRVRELLRELGFPESVEITIEPKKPDDGSVIYPVKVTLNDPALEARLSAGGS [r8_85_JUSTAS]
folding stability dG unfold [1]: 1.04 ± 0.038 kcal/mol | folding stability dG unfold [2]: 1.22 ± 0.036 kcal/mol | folding stability dG unfold [3]: 1.11 ± 0.097 kcal/mol

SAGTIRIVVPAEELSDEEIEALAEELRKLFPNAKIVRVERRVETLPDGRKRTYVVLEIHIELPPPPEEESAG [r5_835_TrROS_Hall]
folding stability dG unfold [1]: 4 ± 0.13 kcal/mol | folding stability dG unfold [2]: 4.33 ± 0.12 kcal/mol | folding stability dG unfold [3]: 4.26 ± 0.14 kcal/mol

SAGGSAGGSAGGPNGKPLNLKIEIPKIEKIQRVNGRPVIRIPVRMTFPGKEVKMTIWIPISAGGSAGGSAGG [r7_739_TrROS]
folding stability dG unfold [1]: 2.13 ± 0.086 kcal/mol | folding stability dG unfold [2]: 2.44 ± 0.048 kcal/mol | folding stability dG unfold [3]: 2.3 ± 0.095 kcal/mol

SAGGKKKKVKKVKVEVKVTVTLTIKLPKEKIKSKEEAEALAKKLLEELGIEGAKVKIEEKDGYLTLTFSAGG [r13_130_TrROS_Hall]
folding stability dG unfold [1]: 2.66 ± 0.092 kcal/mol | folding stability dG unfold [2]: 4.24 ± 0.2 kcal/mol | folding stability dG unfold [3]: 3.85 ± 0.39 kcal/mol

SAGGSAGGSAGYLYFISIEFNLQWNGDGNLQLQPKIEIQRIEIPPPPPKWKYDGNKPKYDSAGGSAGGSAGG [r17_418_TrROS]
folding stability dG unfold [1]: 2.44 ± 0.12 kcal/mol | folding stability dG unfold [2]: 3.44 ± 0.048 kcal/mol | folding stability dG unfold [3]: 3.04 ± 0.17 kcal/mol

SAGGSADELLDKLGLPPDNIRKIKPVEPNPNGMRQLELEWPYKENGKEWRITIMYSPDGIMIDIEPSAGGSA [r15_813_TrROS]
folding stability dG unfold [1]: 0.834 ± 0.061 kcal/mol | folding stability dG unfold [2]: 1.87 ± 0.053 kcal/mol | folding stability dG unfold [3]: 1.57 ± 0.1 kcal/mol

SAGGDIKILSIQFMPPGWIMIVAEIPLENGEKWHISIMIRITPEARNHPPGQEYEFRIDINISIVPRSAGGS [r16_787_TrROS]
folding stability dG unfold [1]: 3.5 ± 0.26 kcal/mol | folding stability dG unfold [2]: 4.91 ± 0.41 kcal/mol | folding stability dG unfold [3]: 4.5 ± 0.32 kcal/mol
